Assay results: patent US20170253660A1

Target: T1, B7-H3 on LAN-1 cells (human) (UniProt Q5ZPR3)
T1 sequence (looked up): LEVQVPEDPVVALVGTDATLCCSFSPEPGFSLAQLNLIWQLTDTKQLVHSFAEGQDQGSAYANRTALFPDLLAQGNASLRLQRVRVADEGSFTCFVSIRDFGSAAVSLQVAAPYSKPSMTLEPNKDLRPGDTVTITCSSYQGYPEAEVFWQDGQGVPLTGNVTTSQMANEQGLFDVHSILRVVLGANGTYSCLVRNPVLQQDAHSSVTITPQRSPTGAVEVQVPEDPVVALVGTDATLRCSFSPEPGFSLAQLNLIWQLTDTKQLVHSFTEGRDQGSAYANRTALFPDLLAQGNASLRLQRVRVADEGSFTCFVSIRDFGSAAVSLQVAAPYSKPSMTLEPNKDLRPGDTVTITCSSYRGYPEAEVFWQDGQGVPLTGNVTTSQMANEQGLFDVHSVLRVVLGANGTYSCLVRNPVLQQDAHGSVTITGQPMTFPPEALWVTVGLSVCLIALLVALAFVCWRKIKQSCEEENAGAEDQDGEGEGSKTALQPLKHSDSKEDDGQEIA
Test: flow cytometry wash-off on LAN-1 cells, FITC-labeled goat anti-mouse second antibody

B1: 8H9 (antibody, INN chains, looked up, mouse IgG1, V domains shown)
VH: QVQLQQSGAELVKPGASVKLSCKASGYTFTNYDINWVRQRPEQGLEWIGWIFPGDGSTQYNEKFKGKATLTTDTSSSTAYMQLSRLTSEDSAVYFCARQTTATWFAYWGQGTLVTVSA
VL: DIVMTQSPATLSVTPGDRVSLSCRASQSISDYLHWYQQKSHESPRLLIKYASQSISGIPSRFSGSGSGSDFTLSINSVEPEDVGVYYCQNGHSFPLTFGAGTKLELK
For B1, the retention on cells after 10 washes (MFI as percent of the baseline after first wash) was 80%.
